Here are results for four variants from FireProtDB (doi:10.1021/bi00250a042).

The labels stand for the following.
B1: Subtilisin-chymotrypsin inhibitor-2A, P01053 (parent)
chain: MSSVEKKPEGVNTGAGDRHNLKTEWPELVGKSVEEAKKVILQDKPEAQIIVLPVGTIVTMEYRIDRVRLFVDKLDNIAQVPRVG

In this data set the parent is B1. The conditions noted are these: Hordeum vulgare; pH 6.3; 25 °C; GdnHCl; Fluorescence; MES 450 mM; reversible: yes; structure 2CI2; whole UniProt chain shown.

For the variant E61A, the “ddG of mutation (higher = less stable)” value was found to be 1.06 kcal/mol, the denaturant m value worked out at 1.78 kcal/mol/M, the “denaturant midpoint (higher = more stable)” value (shortened to “denaturant midpoint”) came out at 3.64 M and the unfolding free energy was found to be 6.48 kcal/mol.

Regarding T59A E61A, the “ddG of mutation (higher = less stable)” value came to 0.67 kcal/mol, the denaturant m value came out at 1.94 kcal/mol/M, the “denaturant midpoint” value was 3.54 M and the unfolding free energy came to 6.87 kcal/mol.

T59D: the “ddG of mutation (higher = less stable)” value is 0.04 kcal/mol, the denaturant m value stood at 1.87 kcal/mol/M, the “denaturant midpoint” value came out at 4.01 M and the unfolding free energy worked out at 7.5 kcal/mol.

On to T59A, for which the “ddG of mutation (higher = less stable)” value was 0.68 kcal/mol, the denaturant m value was 1.89 kcal/mol/M, the “denaturant midpoint” value was determined as 3.63 M and the unfolding free energy was found to be 6.86 kcal/mol.
